# Test results from the Human Domainome abundance scans (Beltran et al. 2025).
# ± gives the uncertainty stated by the source.
# B1: Activity-dependent neuroprotector homeobox protein, residues 770 to 810; numbered along this chain, Q9H2P0 (parent)
# chain: FLTKYFNKQPYPTRREIEKLAASLWLWKSDIASHFSNKRKK
# Variants of: B1
# Assay: abundance fitness (aPCA) (normalised: wild type 0, dead -1); higher = more abundant; growth selection in yeast, the domain comes from the species named
# Settings: Homo sapiens
row,Variant,abundance fitness
1,FLTKPFNKQPYPTRREIEKLAASLWLWKSDIASHFSNKRKK,-0.526 ± 0.23
2,FLTKLFNKQPYPTRREIEKLAASLWLWKSDIASHFSNKRKK,-0.322 ± 0.095
3,FLTKKFNKQPYPTRREIEKLAASLWLWKSDIASHFSNKRKK,-0.183 ± 0.28
4,FLTKNFNKQPYPTRREIEKLAASLWLWKSDIASHFSNKRKK,-0.564 ± 0.25
5,FLTKYFNKQWYPTRREIEKLAASLWLWKSDIASHFSNKRKK,0.059 ± 0.14
6,FLTKYFNKQCYPTRREIEKLAASLWLWKSDIASHFSNKRKK,0.011 ± 0.077
7,FLTKYFNKQAYPTRREIEKLAASLWLWKSDIASHFSNKRKK,-0.095 ± 0.068
8,FLTKYFNKQGYPTRREIEKLAASLWLWKSDIASHFSNKRKK,-0.129 ± 0.084
9,FLTKYFNKQNYPTRREIEKLAASLWLWKSDIASHFSNKRKK,0.09 ± 0.078
10,FLTKYFNKQYYPTRREIEKLAASLWLWKSDIASHFSNKRKK,-0.155 ± 0.12
11,FLTKYFNKQEYPTRREIEKLAASLWLWKSDIASHFSNKRKK,0.158 ± 0.081
12,FLTKYFNKQVYPTRREIEKLAASLWLWKSDIASHFSNKRKK,0.062 ± 0.056
13,FLTKYFNKQSYPTRREIEKLAASLWLWKSDIASHFSNKRKK,0.06 ± 0.068
14,FLTKYFNKQHYPTRREIEKLAASLWLWKSDIASHFSNKRKK,-0.153 ± 0.13
15,FLTKYFNKQKYPTRREIEKLAASLWLWKSDIASHFSNKRKK,-0.139 ± 0.095
16,FLTKYFNKQLYPTRREIEKLAASLWLWKSDIASHFSNKRKK,-0.15 ± 0.063
17,FLTKYFNKQTYPTRREIEKLAASLWLWKSDIASHFSNKRKK,0.011 ± 0.061
18,FLTKYFNKQIYPTRREIEKLAASLWLWKSDIASHFSNKRKK,-0.114 ± 0.073
19,FLTKYFNKQPLPTRREIEKLAASLWLWKSDIASHFSNKRKK,-0.006 ± 0.052
20,FLTKYFNKQPIPTRREIEKLAASLWLWKSDIASHFSNKRKK,0.05 ± 0.087
21,FLTKYFNKQPSPTRREIEKLAASLWLWKSDIASHFSNKRKK,0.275 ± 0.047

row,Variant,abundance fitness
1,FLTKYFNKQPNPTRREIEKLAASLWLWKSDIASHFSNKRKK,0.124 ± 0.059
2,FLTKYFNKQPMPTRREIEKLAASLWLWKSDIASHFSNKRKK,0.058 ± 0.085
3,FLTKYFNKQPTPTRREIEKLAASLWLWKSDIASHFSNKRKK,0.135 ± 0.061
4,FLTKYFNKQPRPTRREIEKLAASLWLWKSDIASHFSNKRKK,-0.035 ± 0.052
5,FLTKYFNKQPAPTRREIEKLAASLWLWKSDIASHFSNKRKK,0.137 ± 0.064
6,FLTKYFNKQPGPTRREIEKLAASLWLWKSDIASHFSNKRKK,0.293 ± 0.051
7,FLTKYFNKQPDPTRREIEKLAASLWLWKSDIASHFSNKRKK,-0.086 ± 0.16
8,FLTKYFNKQPFPTRREIEKLAASLWLWKSDIASHFSNKRKK,-0.182 ± 0.13
9,FLTKYFNKQPPPTRREIEKLAASLWLWKSDIASHFSNKRKK,-0.124 ± 0.061
10,FLTKYFNKQPCPTRREIEKLAASLWLWKSDIASHFSNKRKK,0.086 ± 0.3
11,FLTKYFNKQPVPTRREIEKLAASLWLWKSDIASHFSNKRKK,0.031 ± 0.053
12,FLTKYFNKQPHPTRREIEKLAASLWLWKSDIASHFSNKRKK,0.076 ± 0.078
13,FLTKYFNKQPQPTRREIEKLAASLWLWKSDIASHFSNKRKK,0.181 ± 0.071
14,FLTKYFNKQPWPTRREIEKLAASLWLWKSDIASHFSNKRKK,0.003 ± 0.095
15,FLTKYFNKQPEPTRREIEKLAASLWLWKSDIASHFSNKRKK,0.02 ± 0.071
16,FLTKYFNKQPYPHRREIEKLAASLWLWKSDIASHFSNKRKK,-0.135 ± 0.079
17,FLTKYFNKQPYPFRREIEKLAASLWLWKSDIASHFSNKRKK,0.044 ± 0.29
18,FLTKYFNKQPYPIRREIEKLAASLWLWKSDIASHFSNKRKK,0.101 ± 0.11
19,FLTKYFNKQPYPARREIEKLAASLWLWKSDIASHFSNKRKK,0.016 ± 0.069
20,FLTKYFNKQPYPERREIEKLAASLWLWKSDIASHFSNKRKK,-0.369 ± 0.1
21,FLTKYFNKQPYPDRREIEKLAASLWLWKSDIASHFSNKRKK,-0.26 ± 0.11

row,Variant,abundance fitness
1,FLTKYFNKQPYPKRREIEKLAASLWLWKSDIASHFSNKRKK,-0.046 ± 0.092
2,FLTKYFNKQPYPGRREIEKLAASLWLWKSDIASHFSNKRKK,0.16 ± 0.051
3,FLTKYFNKPPYPTRREIEKLAASLWLWKSDIASHFSNKRKK,-0.698 ± 0.069
4,FLTKYFNKGPYPTRREIEKLAASLWLWKSDIASHFSNKRKK,-0.133 ± 0.12
5,FLTKYFNKIPYPTRREIEKLAASLWLWKSDIASHFSNKRKK,-0.074 ± 0.1
6,FLTKYFNKYPYPTRREIEKLAASLWLWKSDIASHFSNKRKK,-0.409 ± 0.19
7,FLTKYFNKTPYPTRREIEKLAASLWLWKSDIASHFSNKRKK,-0.053 ± 0.063
8,FLTKYFNKRPYPTRREIEKLAASLWLWKSDIASHFSNKRKK,0.039 ± 0.059
9,FLTKYFNKCPYPTRREIEKLAASLWLWKSDIASHFSNKRKK,-0.014 ± 0.063
10,FLTKYFNKVPYPTRREIEKLAASLWLWKSDIASHFSNKRKK,-0.269 ± 0.15
11,FLTKYFNKEPYPTRREIEKLAASLWLWKSDIASHFSNKRKK,-0.075 ± 0.11
12,FLTKYFNKAPYPTRREIEKLAASLWLWKSDIASHFSNKRKK,-0.269 ± 0.07
13,FLTKYFNKDPYPTRREIEKLAASLWLWKSDIASHFSNKRKK,-0.169 ± 0.12
14,FLTKYFNKSPYPTRREIEKLAASLWLWKSDIASHFSNKRKK,-0.139 ± 0.062
15,FLTKYFNKWPYPTRREIEKLAASLWLWKSDIASHFSNKRKK,-0.823 ± 0.38
16,FLTKYFNKNPYPTRREIEKLAASLWLWKSDIASHFSNKRKK,-0.007 ± 0.068
17,FLTKYFNKLPYPTRREIEKLAASLWLWKSDIASHFSNKRKK,-0.149 ± 0.065
18,FLTKYFNKFPYPTRREIEKLAASLWLWKSDIASHFSNKRKK,-0.233 ± 0.11
19,FLTKYFNCQPYPTRREIEKLAASLWLWKSDIASHFSNKRKK,-1.11 ± 0.24
